From patent JP2015180626A (dated 2015)

Target: RSV Fタンパク質 (RSV A2ウイルス) (respiratory syncytial virus (RSV) A2, UniProt P03420 26-574)
Assay: cell-based or functional assay

RSV Fタンパク質 (RSV A2ウイルス), sequence (P03420 26-574): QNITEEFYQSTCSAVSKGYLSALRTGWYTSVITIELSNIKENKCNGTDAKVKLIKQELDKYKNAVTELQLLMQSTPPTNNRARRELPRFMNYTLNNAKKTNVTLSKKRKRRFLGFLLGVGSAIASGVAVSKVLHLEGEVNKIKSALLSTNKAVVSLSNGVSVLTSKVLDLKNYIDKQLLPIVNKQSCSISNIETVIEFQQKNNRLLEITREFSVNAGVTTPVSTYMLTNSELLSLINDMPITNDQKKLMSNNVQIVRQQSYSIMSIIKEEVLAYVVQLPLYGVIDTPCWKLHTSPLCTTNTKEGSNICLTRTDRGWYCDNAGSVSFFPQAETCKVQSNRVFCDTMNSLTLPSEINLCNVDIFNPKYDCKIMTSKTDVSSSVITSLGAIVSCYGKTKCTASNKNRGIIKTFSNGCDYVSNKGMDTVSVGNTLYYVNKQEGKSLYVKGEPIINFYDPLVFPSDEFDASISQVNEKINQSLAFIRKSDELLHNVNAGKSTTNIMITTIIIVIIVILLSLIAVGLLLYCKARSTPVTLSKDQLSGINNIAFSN

B1: AM22 (antibody, V domains shown)
VH: QVQLVQSGAEVKKPGATVKVSCKISGHTLIKLSIHWVRQAPGKGLEWMGGYEGEVDEIFYAQKFQHRLTVIADTATDTVYMELGRLTSDDTAVYFCGTLGVTVTEAGLGIDDYWGQGTLVTVSS
VL: EIVLTQSPGTLSLSPGERATLSCRASQIVSRNHLAWYQQKPGQAPRLLIFGASSRATGIPVRFSGSGSGTDFTLTINGLAPEDFAVYYCLSSDSSIFTFGPGTKVDFK
- RSV-A2ウイルスに対する中央値半分最大阻害濃度(IC 50 ) (neutralisation of RSV A2 on HEp2 cells): 1.15 ng/mL
